Laboratory results reported in US20250276018A1 (AFFYIMMUNE THERAPEUTICS, published 2025).
Residue numbers refer to the chain shown, from its start. Numbers in names are those of the source. Read-outs that look alike come from different tables or passages of the source.

Tests used:
[1] = target: T1, AF647 labeled c-met protein (UniProt P08581 25-932, limits assumed, labeled with AlexaFluor 647 (AF647)); assay: flow cytometry, EC50 relative to parental Affy6 CAR-T cells (Round 1)
T1 construct: Soluble labeled c-met protein titrated on CAR-T cells
T1 sequence (P08581 25-932 limits assumed): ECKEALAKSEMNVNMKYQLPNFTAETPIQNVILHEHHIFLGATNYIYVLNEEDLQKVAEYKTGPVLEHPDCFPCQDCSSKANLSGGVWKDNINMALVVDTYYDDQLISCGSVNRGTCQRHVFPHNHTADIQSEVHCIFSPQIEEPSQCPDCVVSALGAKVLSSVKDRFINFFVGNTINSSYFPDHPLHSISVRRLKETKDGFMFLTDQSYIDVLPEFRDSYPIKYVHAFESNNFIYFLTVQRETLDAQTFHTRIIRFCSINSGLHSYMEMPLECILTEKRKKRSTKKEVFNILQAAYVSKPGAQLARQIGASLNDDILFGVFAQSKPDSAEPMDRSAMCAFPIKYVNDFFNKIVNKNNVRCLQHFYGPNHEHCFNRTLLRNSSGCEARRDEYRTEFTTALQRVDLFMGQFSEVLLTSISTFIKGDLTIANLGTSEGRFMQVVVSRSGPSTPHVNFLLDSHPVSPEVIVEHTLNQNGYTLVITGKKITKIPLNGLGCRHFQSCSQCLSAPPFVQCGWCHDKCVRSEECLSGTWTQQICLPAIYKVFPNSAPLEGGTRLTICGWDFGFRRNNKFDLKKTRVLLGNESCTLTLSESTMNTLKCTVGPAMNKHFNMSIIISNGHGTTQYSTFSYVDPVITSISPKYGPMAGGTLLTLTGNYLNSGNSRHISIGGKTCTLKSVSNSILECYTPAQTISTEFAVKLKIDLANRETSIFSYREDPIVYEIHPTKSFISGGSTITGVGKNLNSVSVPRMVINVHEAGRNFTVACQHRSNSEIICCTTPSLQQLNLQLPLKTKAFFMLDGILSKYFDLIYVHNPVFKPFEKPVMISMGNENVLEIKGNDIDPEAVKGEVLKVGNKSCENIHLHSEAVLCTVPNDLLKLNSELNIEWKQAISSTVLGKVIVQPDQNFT
Procedure: (§1) Binding of labeled c-MET to CAR-T cells expressing the affinity tuned c-MET scFvs was evaluated by transducing lentivirus anti-c-MET CAR particles into human T cells to form c-MET CAR-T cells incubated with AF647-labeled c-MET. […] Following a 48 hr. incubation at 37° C., the culture media was brought up to […] per well and incubated at 37° C. for 10 days.
(§2) Cells were stained on ice for 30 mins and then washed with PBS. After washing, residually bound protein on CAR T cells were measured on a flow cytometer (Beckman, CytoFLEX®). The resulting binding data was fit using a non-linear regression analysis on GraphPad Prism to calculate half effective dose concentration (EC₅₀) values. The results of this analysis are shown in FIGS. 2-5 and Tables 2-5 below.

[2] = target: T1, AF647 labeled c-met protein; assay: flow cytometry, AF647-labeled c-met protein titrated on CAR-T cells (Round 1)
Procedure: as §1, §2

[3] = target: T2, c-MET on human target cells (human, UniProt P08581 25-1390); assay: cell-based or functional assay
T2 sequence (P08581 25-1390): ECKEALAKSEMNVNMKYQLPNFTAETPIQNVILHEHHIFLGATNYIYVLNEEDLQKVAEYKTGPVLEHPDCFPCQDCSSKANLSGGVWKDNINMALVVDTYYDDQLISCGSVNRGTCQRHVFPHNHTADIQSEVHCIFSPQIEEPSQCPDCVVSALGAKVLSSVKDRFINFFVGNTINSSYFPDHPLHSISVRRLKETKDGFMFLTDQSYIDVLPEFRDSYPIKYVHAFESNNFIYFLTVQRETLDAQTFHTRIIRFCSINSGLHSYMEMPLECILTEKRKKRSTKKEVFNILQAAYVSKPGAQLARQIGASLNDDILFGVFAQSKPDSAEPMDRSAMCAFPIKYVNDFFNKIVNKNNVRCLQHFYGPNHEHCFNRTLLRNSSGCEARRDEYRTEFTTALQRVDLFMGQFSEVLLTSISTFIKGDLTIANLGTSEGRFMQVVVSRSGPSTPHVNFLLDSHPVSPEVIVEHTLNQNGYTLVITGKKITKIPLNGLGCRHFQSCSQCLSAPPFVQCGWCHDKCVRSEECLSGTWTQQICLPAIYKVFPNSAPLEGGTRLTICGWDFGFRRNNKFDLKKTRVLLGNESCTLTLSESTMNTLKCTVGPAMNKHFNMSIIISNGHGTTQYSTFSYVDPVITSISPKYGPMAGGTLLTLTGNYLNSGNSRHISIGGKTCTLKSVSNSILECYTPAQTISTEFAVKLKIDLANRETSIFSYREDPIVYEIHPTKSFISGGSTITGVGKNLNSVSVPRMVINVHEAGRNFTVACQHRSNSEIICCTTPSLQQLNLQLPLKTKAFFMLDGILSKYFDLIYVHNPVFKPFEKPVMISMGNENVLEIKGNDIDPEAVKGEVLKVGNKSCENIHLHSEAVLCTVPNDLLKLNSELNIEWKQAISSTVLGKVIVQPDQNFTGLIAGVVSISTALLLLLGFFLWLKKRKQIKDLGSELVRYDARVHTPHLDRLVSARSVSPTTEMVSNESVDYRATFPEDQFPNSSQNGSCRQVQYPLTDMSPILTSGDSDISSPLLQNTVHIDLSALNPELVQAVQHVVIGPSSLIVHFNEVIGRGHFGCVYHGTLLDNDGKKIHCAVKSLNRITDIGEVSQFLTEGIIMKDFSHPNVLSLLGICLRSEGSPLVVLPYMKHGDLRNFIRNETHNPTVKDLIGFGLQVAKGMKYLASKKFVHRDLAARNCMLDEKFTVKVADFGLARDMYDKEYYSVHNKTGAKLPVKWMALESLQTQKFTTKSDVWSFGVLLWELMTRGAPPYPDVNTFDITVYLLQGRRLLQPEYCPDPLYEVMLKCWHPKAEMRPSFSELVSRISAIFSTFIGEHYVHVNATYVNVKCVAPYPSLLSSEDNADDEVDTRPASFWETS

[4] = target: T2, c-MET on human target cells; assay: cell-based or functional assay; remark: listed apart in the source
[5] = target: T2, c-MET on human target cells; assay: cell-based or functional assay; remark: listed apart in the source
[6] = target: T2, c-MET on human target cells; assay: cell-based or functional assay; remark: listed apart in the source
[7] = target: T1, AF647 labeled c-met protein; assay: flow cytometry, EC50 relative to parental Affy7 CAR-T cells (Round 1)
Procedure: as §1, §2

[8] = target: T1, AF647 labeled c-met protein; assay: flow cytometry, AF647-labeled c-met protein on CAR-T cells; lower end tied to Affy7-L9A by Table 2
Procedure: as §2

[9] = target: T2, c-MET on human target cells; assay: cell-based or functional assay; remark: listed apart in the source
[10] = target: T2, c-MET on human target cells; assay: cell-based or functional assay; remark: listed apart in the source
[11] = target: T2, c-MET on human target cells; assay: cell-based or functional assay; remark: listed apart in the source
[12] = target: T2, c-MET on human target cells; assay: cell-based or functional assay; remark: listed apart in the source
[13] = target: T2, c-MET on human target cells; assay: cell-based or functional assay; remark: listed apart in the source
[14] = target: T2, c-MET on human target cells; assay: cell-based or functional assay; remark: listed apart in the source
[15] = target: T2, c-MET on human target cells; assay: cell-based or functional assay; remark: listed apart in the source
[16] = target: T2, c-MET on human target cells; assay: cell-based or functional assay; remark: listed apart in the source

B1: Affy6-I3A CAR (other)
chain: GSEQKLISEEDLGSQVQLVQSGAEVKKPGASVKVSCKASGYIFTAYTMHWVRQAPGQGLEWMGWIKPNNGLANYAQKFQGRVTMTRDTSISTAYMELSRLRSDDTAVYYCARSEATTEFDYWGQGTLVTVSSGGGGSGGGGSGGGGSDIVLTQSPDSLAVSLGERATINCKSSESVDSYANSFMHWYQQKPGQPPKLLIYRASTRESGVPDRFSGSGSRTDFTLTISSLQAEDVAVYYCQQSKEDPLTFGGGTKVEIKASTTTPAPRPPTPAPTIASQPLSLRPEACRPAAGGAVHTRGLDFACDFWVLVVVGGVLACYSLLVTVAFIIFWVRSKRSRLLHSDYMNMTPRRPGPTRKHYQPYAPPRDFAAYRSLRVKFSRSADAPAYQQGQNQLYNELNLGRREEYDVLDKRRGRDPEMGGKPRRKNPQEGLYNELQKDKMAEAYSEIGMKGERRRGKGHDGLYQGLSTATKDTYDALHMQALPPR
notes: CAR on transduced human T cells; I to A in HC CDR3; P2A remnant not included; also called MycTAffy6-I3A CAR-SSTR2
[1]
  Fold Change: 956 fold
[2]
  EC50: 20.9 µM
[3]
  percent cytotoxicity, H1993, 24 hrs: 73.1%
  percent cytotoxicity, H1993, 48 hrs: 95.3%
  percent cytotoxicity, H1993, 72 hrs: 98.9%

B2: Affy7-L9A CAR (other)
chain: GSEQKLISEEDLGSQVQLQQSGPELVRPGASVKMSCRASGYTFTSYWLHWVKQRPGQGLEWIGMIDPSNSDTRFNPNFKDKATLNVDRSSNTAYMLLSSLTSADSAVYYCATYGSYVSPADYWGQGTSVTVSSGGGGSGGGGSGGGGSDIMMSQSPSSLTVSVGEKVTVSCKSSQSLLYTSSQKNYLAWYQQKPGQSPKLLIYWASTRESGVPDRFTGSGSGTDFTLTITSVKADDLAVYYCQQYYAYPWTFGGGTKLEIKRASTTTPAPRPPTPAPTIASQPLSLRPEACRPAAGGAVHTRGLDFACDFWVLVVVGGVLACYSLLVTVAFIIFWVRSKRSRLLHSDYMNMTPRRPGPTRKHYQPYAPPRDFAAYRSLRVKFSRSADAPAYQQGQNQLYNELNLGRREEYDVLDKRRGRDPEMGGKPRRKNPQEGLYNELQKDKMAEAYSEIGMKGERRRGKGHDGLYQGLSTATKDTYDALHMQALPPR
notes: CAR on transduced human T cells; L to A in HC CDR3; P2A remnant not included; also called MycT-Affy7-L9A CAR-SSTR2
[2]
  EC50: 1 µM
[4]
  cytotoxicity, Normal Human Kidney Cells, 8 hrs: 12.9
  cytotoxicity, Normal Human Kidney Cells, 16 hrs: 23.9
  cytotoxicity, Normal Human Kidney Cells, 24 hrs: 30.7
  cytotoxicity, Normal Human Kidney Cells, 32 hrs: 38.8
  cytotoxicity, Normal Human Kidney Cells, 40 hrs: 46.9
  cytotoxicity, Normal Human Kidney Cells, 48 hrs: 54.7
[5]
  cytotoxicity, Normal Human Lung Cells, 8 hrs: 7.5
  cytotoxicity, Normal Human Lung Cells, 16 hrs: 20.9
  cytotoxicity, Normal Human Lung Cells, 24 hrs: 38.3
  cytotoxicity, Normal Human Lung Cells, 32 hrs: 46.4
  cytotoxicity, Normal Human Lung Cells, 40 hrs: 50.7
  cytotoxicity, Normal Human Lung Cells, 47 hrs: 45.3
[6]
  cytotoxicity, Normal Human Liver Cells, 8 hrs: 13.7
  cytotoxicity, Normal Human Liver Cells, 16 hrs: 24.5
  cytotoxicity, Normal Human Liver Cells, 24 hrs: 32.8
  cytotoxicity, Normal Human Liver Cells, 32 hrs: 37.9
  cytotoxicity, Normal Human Liver Cells, 40 hrs: 50.1
  cytotoxicity, Normal Human Liver Cells, 48 hrs: 60
[7]
  Fold Change: 20 fold
[8]
  fold reduction in affinity relative to the parental-expressing CARs: 20 to 7640 fold
[9]
  cytotoxicity, Normal Human Colon Cells, 8 hrs: 12.1
  cytotoxicity, Normal Human Colon Cells, 16 hrs: 25
  cytotoxicity, Normal Human Colon Cells, 24 hrs: 27.2
  cytotoxicity, Normal Human Colon Cells, 32 hrs: 38.2
  cytotoxicity, Normal Human Colon Cells, 40 hrs: 48.5
  cytotoxicity, Normal Human Colon Cells, 48 hrs: 49.6

B3: Affy7-Y6A CAR (other)
chain: B2 chain with Y113A, A120L
notes: CAR on transduced human T cells; Y to A in HC CDR3; P2A remnant not included; also called Affy-Y6A; MycT-Affy7-Y6A CAR-SSTR2
[10]
  percent cytotoxicity, H1993, 24 hrs: 85.7%
  percent cytotoxicity, H1993, 48 hrs: 96.9%
  percent cytotoxicity, H1993, 72 hrs: 99.2%
[11]
  percent cytotoxicity, SNU638, 24 hrs: 79.2%
  percent cytotoxicity, SNU638, 48 hrs: 93.5%
  percent cytotoxicity, SNU638, 72 hrs: 98.7%
[2]
  EC50: 3.3 µM
[12]
  cytotoxicity, Normal Human Lung Cells, 8 hrs: 30.6
  cytotoxicity, Normal Human Lung Cells, 16 hrs: 32.6
  cytotoxicity, Normal Human Lung Cells, 24 hrs: 40.1
  cytotoxicity, Normal Human Lung Cells, 32 hrs: 48.3
  cytotoxicity, Normal Human Lung Cells, 40 hrs: 56.5
  cytotoxicity, Normal Human Lung Cells, 48 hrs: 64
[4]
  cytotoxicity, Normal Human Kidney Cells, 8 hrs: 15.8
  cytotoxicity, Normal Human Kidney Cells, 16 hrs: 27.1
  cytotoxicity, Normal Human Kidney Cells, 24 hrs: 29.4
  cytotoxicity, Normal Human Kidney Cells, 32 hrs: 31.1
  cytotoxicity, Normal Human Kidney Cells, 40 hrs: 42.6
  cytotoxicity, Normal Human Kidney Cells, 48 hrs: 54.7
[13]
  cytotoxicity, Normal Human Colon Cells, 8 hrs: 26.5
  cytotoxicity, Normal Human Colon Cells, 16 hrs: 36.3
  cytotoxicity, Normal Human Colon Cells, 24 hrs: 42.5
  cytotoxicity, Normal Human Colon Cells, 32 hrs: 51.5
  cytotoxicity, Normal Human Colon Cells, 40 hrs: 62.7
  cytotoxicity, Normal Human Colon Cells, 48 hrs: 70.7
[5]
  cytotoxicity, Normal Human Lung Cells, 8 hrs: 13.1
  cytotoxicity, Normal Human Lung Cells, 16 hrs: 31.3
  cytotoxicity, Normal Human Lung Cells, 24 hrs: 47.6
  cytotoxicity, Normal Human Lung Cells, 32 hrs: 50
  cytotoxicity, Normal Human Lung Cells, 40 hrs: 53
  cytotoxicity, Normal Human Lung Cells, 47 hrs: 52.1
[6]
  cytotoxicity, Normal Human Liver Cells, 8 hrs: 14.2
  cytotoxicity, Normal Human Liver Cells, 16 hrs: 26.3
  cytotoxicity, Normal Human Liver Cells, 24 hrs: 33.1
  cytotoxicity, Normal Human Liver Cells, 32 hrs: 40.1
  cytotoxicity, Normal Human Liver Cells, 40 hrs: 55
  cytotoxicity, Normal Human Liver Cells, 48 hrs: 65
[14]
  cytotoxicity, Normal Human Kidney Cells, 8 hrs: 29.2
  cytotoxicity, Normal Human Kidney Cells, 16 hrs: 39.3
  cytotoxicity, Normal Human Kidney Cells, 24 hrs: 48.9
  cytotoxicity, Normal Human Kidney Cells, 32 hrs: 53.9
  cytotoxicity, Normal Human Kidney Cells, 40 hrs: 60.5
  cytotoxicity, Normal Human Kidney Cells, 48 hrs: 65.9
[7]
  Fold Change: 66 fold
[15]
  cytotoxicity, Normal Human Liver Cells, 8 hrs: 19.3
  cytotoxicity, Normal Human Liver Cells, 16 hrs: 29.8
  cytotoxicity, Normal Human Liver Cells, 24 hrs: 44.8
  cytotoxicity, Normal Human Liver Cells, 32 hrs: 53.9
  cytotoxicity, Normal Human Liver Cells, 40 hrs: 57.5
  cytotoxicity, Normal Human Liver Cells, 48 hrs: 58.5
[16]
  percent cytotoxicity, Hs746T, 24 hrs: 88.3%
  percent cytotoxicity, Hs746T, 48 hrs: 98.4%
  percent cytotoxicity, Hs746T, 72 hrs: 98.8%
[9]
  cytotoxicity, Normal Human Colon Cells, 8 hrs: 13.1
  cytotoxicity, Normal Human Colon Cells, 16 hrs: 25
  cytotoxicity, Normal Human Colon Cells, 24 hrs: 25.6
  cytotoxicity, Normal Human Colon Cells, 32 hrs: 35.8
  cytotoxicity, Normal Human Colon Cells, 40 hrs: 45.4
  cytotoxicity, Normal Human Colon Cells, 48 hrs: 45.6
